Source: patent publication US20250034266A1
Like-named read-outs stand apart in the source and are kept apart here. Each block holds one binder with its values, some of them ahead of it.

How the values were obtained:
human CCR8 (human) [1] = target: human CCR8 (human) (UniProt P51685); assay: FACS on CHO-K1-human CCR8 cells
[2] = target: cynomolgus CCR8 (cynomolgus) (UniProt G7NYJ2); assay: FACS on HEK293-cynomolgus CCR8 cells
[3] = target: cynomolgus CCR8 (cynomolgus) (UniProt G7NYJ2); assay: FACS on HEK293-cynomolgus CCR8 cells; remark: listed apart in the source
human CCR8 (human) [4] = target: human CCR8 (human) (UniProt P51685); assay: FACS competition with 4 nM AF647-human CCL1 on human CCR8 cells
human CCR8 (human) [5] = target: human CCR8 (human) (UniProt P51685); assay: FACS on HuT78 cells (endogenous human CCR8)
human CCR8 (human) [6] = target: human CCR8 (human) (UniProt P51685); assay: FACS on HEK293-human CCR8 cells
human CCR8 (human) [7] = target: human CCR8 (human) (UniProt P51685); assay: cell-based or functional assay
[8] = target: human CCR8 tagged with ProLink (PK) (human) (UniProt P51685); assay: cell-based or functional assay
Sequence of human CCR8 tagged with ProLink (PK) (human) (P51685 whole entry): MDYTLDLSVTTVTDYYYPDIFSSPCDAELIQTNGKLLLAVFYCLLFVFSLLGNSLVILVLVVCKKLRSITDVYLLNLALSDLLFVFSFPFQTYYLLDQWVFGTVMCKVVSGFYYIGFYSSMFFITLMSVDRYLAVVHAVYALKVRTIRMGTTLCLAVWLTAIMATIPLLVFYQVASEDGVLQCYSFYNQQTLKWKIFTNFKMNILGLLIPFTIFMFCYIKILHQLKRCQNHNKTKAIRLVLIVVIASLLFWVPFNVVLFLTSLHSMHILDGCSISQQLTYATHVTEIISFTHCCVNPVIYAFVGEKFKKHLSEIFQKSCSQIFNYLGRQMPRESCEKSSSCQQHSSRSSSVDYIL

human CCR8 (human) [9] = target: human CCR8 (human) (UniProt P51685); assay: cell-based or functional assay; remark: listed apart in the source
human CCR8 (human) [10] = target: human CCR8 (human) (UniProt P51685); assay: cell-based or functional assay; remark: listed apart in the source
human CCR8 (human) [11] = target: human CCR8 (human) (UniProt P51685); assay: FACS on CHO-K1-human CCR8 cells; remark: listed apart in the source
[12] = target: cynomolgus CCR8 (cynomolgus) (UniProt G7NYJ2); assay: FACS on HEK293-cynomolgus CCR8 cells; remark: listed apart in the source
[13] = target: cynomolgus CCR8 (cynomolgus) (UniProt G7NYJ2); assay: FACS on ExpiCHO-S-cynomolgus CCR8 cells
human CCR8 (human) [14] = target: human CCR8 (human) (UniProt P51685); assay: FACS on HEK293-human CCR8 cells; remark: listed apart in the source
human CCR8 (human) [15] = target: human CCR8 (human) (UniProt P51685); assay: FACS, competition with AF647-human CCL1 on CHO-K1-human CCR8 cells
human CCR8 (human) [16] = target: human CCR8 (human) (UniProt P51685); assay: FACS, competition with CCL1 on CHO-K1-human CCR8 cells
human CCR1 (human) = target: T1, human CCR1 (human) (UniProt P32246); assay: FACS on ExpiCHO-S-human CCR1 cells
T1 sequence (looked up): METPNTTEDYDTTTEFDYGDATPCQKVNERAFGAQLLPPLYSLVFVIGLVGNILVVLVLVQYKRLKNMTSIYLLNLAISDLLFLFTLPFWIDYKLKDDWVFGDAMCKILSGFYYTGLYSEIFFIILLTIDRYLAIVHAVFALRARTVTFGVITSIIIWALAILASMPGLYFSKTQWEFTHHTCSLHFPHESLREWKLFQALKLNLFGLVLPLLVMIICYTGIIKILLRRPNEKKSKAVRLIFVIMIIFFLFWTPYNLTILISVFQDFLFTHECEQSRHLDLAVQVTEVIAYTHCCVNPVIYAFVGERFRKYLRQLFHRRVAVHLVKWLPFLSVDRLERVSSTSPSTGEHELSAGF

human CCR4 (human) = target: T2, human CCR4 (human) (UniProt P51679); assay: FACS on ExpiCHO-S-human CCR4 cells
T2 sequence (looked up): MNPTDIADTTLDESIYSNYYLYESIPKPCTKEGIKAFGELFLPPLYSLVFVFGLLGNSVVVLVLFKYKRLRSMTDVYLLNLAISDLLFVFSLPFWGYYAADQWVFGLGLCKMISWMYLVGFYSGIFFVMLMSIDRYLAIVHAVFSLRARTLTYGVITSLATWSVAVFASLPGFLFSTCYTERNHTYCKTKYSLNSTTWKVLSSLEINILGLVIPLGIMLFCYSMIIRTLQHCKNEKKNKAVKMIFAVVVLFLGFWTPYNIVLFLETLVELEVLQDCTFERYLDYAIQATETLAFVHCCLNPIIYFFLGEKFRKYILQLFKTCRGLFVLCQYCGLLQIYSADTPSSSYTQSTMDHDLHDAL

[17] = target: cynomolgus CCR8 (cynomolgus) (UniProt G7NYJ2); assay: FACS on HEK293-cynomolgus CCR8 cells; remark: listed apart in the source
human CCR8 (human) [18] = target: human CCR8 (human) (UniProt P51685); assay: FACS on HuT78 cells (endogenous human CCR8); remark: listed apart in the source
[19] = target: cynomolgus CCR8 (cynomolgus) (UniProt G7NYJ2); assay: FACS on HEK293-cynomolgus CCR8 cells; remark: listed apart in the source
human CCR8 (human) [20] = target: human CCR8 (human) (UniProt P51685); assay: FACS, competition with AF647-human CCL1 on CHO-K1-human CCR8 cells; remark: listed apart in the source
human CCR8 (human) [21] = target: human CCR8 (human) (UniProt P51685); assay: FACS on HEK293-human CCR8 cells; remark: listed apart in the source
human CCR8 (human) [22] = target: human CCR8 (human) (UniProt P51685); assay: FACS, competition with AF647-human CCL1 on CHO-K1-human CCR8 cells; remark: listed apart in the source
[23] = target: cynomolgus CCR8 (cynomolgus) (UniProt G7NYJ2); assay: FACS on cynomolgus CCR8 cells
human CCR8 (human) [24] = target: human CCR8 (human) (UniProt P51685); assay: FACS on CHO-K1-human CCR8 cells; remark: listed apart in the source
human CCR8 (human) [25] = target: human CCR8 (human) (UniProt P51685); assay: FACS, competition with AF647-human CCL1 on HEK293-human CCR8 cells
human CCR8 (human) [26] = target: human CCR8 (human) (UniProt P51685); assay: FACS, competition with CCL1 on CHO-K1-human CCR8 cells; remark: listed apart in the source
human CCR8 (human) [27] = target: human CCR8 (human) (UniProt P51685); assay: FACS, competition with AF647-human CCL1 on CHO-K1-human CCR8 cells; remark: listed apart in the source
human CCR8 (human) [28] = target: human CCR8 (human) (UniProt P51685); assay: as above; remark: listed apart in the source
[29] = target: cynomolgus CCR8 (cynomolgus) (UniProt G7NYJ2); assay: FACS on HEK293-Cynomolgus CCR8 cells
human CCR8 (human) [30] = target: human CCR8 (human) (UniProt P51685); assay: FACS on HEK293-human CCR8 cells; remark: listed apart in the source
human CCR8 (human) [31] = target: human CCR8 (human) (UniProt P51685); assay: FACS on HEK293-human CCR8 cells; remark: listed apart in the source

Sequence of human CCR8 (human) (P51685 whole entry): as the sequence (P51685 whole entry) above
Sequence of cynomolgus CCR8 (cynomolgus) (G7NYJ2 entry or part of it): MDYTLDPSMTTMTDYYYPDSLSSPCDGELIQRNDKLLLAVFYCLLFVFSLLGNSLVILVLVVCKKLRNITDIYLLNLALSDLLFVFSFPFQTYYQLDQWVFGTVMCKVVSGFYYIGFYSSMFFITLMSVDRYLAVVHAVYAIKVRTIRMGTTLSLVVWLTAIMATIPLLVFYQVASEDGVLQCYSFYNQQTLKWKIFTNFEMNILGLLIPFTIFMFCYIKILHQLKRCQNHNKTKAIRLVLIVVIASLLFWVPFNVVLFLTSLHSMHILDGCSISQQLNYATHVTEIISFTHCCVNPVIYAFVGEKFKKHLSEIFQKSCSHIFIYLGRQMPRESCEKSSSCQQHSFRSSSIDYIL

EC50 (human CCR8 (human) [1]): 0.0823 nM
Max MFI (human CCR8 (human) [1]): 814000 MFI
Max MFI [2]: 648000 MFI
EC50 [3]: 9.08 nM
Max MFI [3]: 802 MFI
Inhibition Rate (%) (human CCR8 (human) [4]): 100%
EC50 (human CCR8 (human) [5]): 0.123 nM
Max MFI (human CCR8 (human) [5]): 60800 MFI
EC50 (human CCR8 (human) [6]): 0.117 nM
Max MFI (human CCR8 (human) [6]): 2020 MFI
IC50, inhibition of CCL1 induced β-Arrestin recruitment (human CCR8 (human) [7]): 0.23 nM
Max Inhibition (%), CCL1 induced β-Arrestin recruitment (human CCR8 (human) [7]): 92.6%
IC50, inhibition of CCL1 induced β-Arrestin recruitment, CHO-K1-human CCR8 β-Arrestin cells [8]: 6.54 nM
Max Inhibition (%), CCL1 induced β-Arrestin recruitment, CHO-K1-human CCR8 β-Arrestin cells [8]: 80.3%
IC50, blocking of CCL1 induced cell migration (human CCR8 (human) [9]): 1.25 nM
IC50, blocking of cell migration induced by CCL1 (human CCR8 (human) [9]): 0.278 nM
IC50, inhibition of CCL1 induced β-Arrestin recruitment (human CCR8 (human) [9]): 1.06 nM
Max Inhibition (%), CCL1 induced β-Arrestin recruitment (human CCR8 (human) [9]): 89.9%
Max Inhibition (%), cell migration induced by CCL1 (human CCR8 (human) [9]): 104%
Max inhibition (%), CCL1 induced cell migration (human CCR8 (human) [9]): 117%
IC50, inhibition of CCL1 induced β-Arrestin recruitment (human CCR8 (human) [10]): 0.89 nM
Max Inhibition (%), CCL1 induced β-Arrestin recruitment (human CCR8 (human) [10]): 92.5%
EC50 (human CCR8 (human) [11]): 0.0699 nM
Max MFI (human CCR8 (human) [11]): 215000 MFI
Max MFI [12]: 1240 MFI
Max MFI [13]: 27 MFI
EC50 (human CCR8 (human) [14]): 0.0878 nM
Max MFI (human CCR8 (human) [14]): 3890 MFI
IC50 (human CCR8 (human) [15]): 0.193 nM
Max Inhibition (%) (human CCR8 (human) [15]): 99.1%
IC50 (human CCR8 (human) [16]): 0.114 nM
Max Inhibition (%) (human CCR8 (human) [16]): 100%
Max MFI (human CCR1 (human)): 133 MFI
Max MFI (human CCR4 (human)): 6.1 MFI
Max MFI [17]: 2340 MFI
Max MFI (human CCR8 (human) [18]): 31900 MFI
EC50 [19]: 19.4 nM
Max MFI [19]: 1.72e+06 MFI
IC50 (human CCR8 (human) [20]): 0.198 nM
Max Inhibition (%) (human CCR8 (human) [20]): 99.6%
EC50 (human CCR8 (human) [21]): 0.197 nM
Max MFI (human CCR8 (human) [21]): 2780 MFI
IC50 (human CCR8 (human) [22]): 0.143 nM
Max Inhibition (%) (human CCR8 (human) [22]): 99.8%
Binding Ratio (GFP + MFI)/(GFP - MFI) [23]: 7.9
Binding Ratio (GFP + MFI)/(GFP - MFI) (human CCR8 (human) [24]): 158
EC50 (human CCR8 (human) [24]): 0.124 nM
Max MFI (human CCR8 (human) [24]): 4920 MFI
IC50 (human CCR8 (human) [25]): 0.335 nM
Max Inhibition (%) (human CCR8 (human) [25]): 98.8%
IC50 (human CCR8 (human) [26]): 0.178 nM
Max Inhibition (%) (human CCR8 (human) [26]): 99.6%
IC50 (human CCR8 (human) [27]): 0.171 nM
Max Inhibition (%) (human CCR8 (human) [27]): 98.7%
IC50 (human CCR8 (human) [28]): 0.243 nM
Max Inhibition (%) (human CCR8 (human) [28]): 96%
Max MFI [29]: 2010 MFI
EC50 (human CCR8 (human) [30]): 0.119 nM
Max MFI (human CCR8 (human) [30]): 2810 MFI
EC50 (human CCR8 (human) [31]): 0.215 nM
Max MFI (human CCR8 (human) [31]): 5940 MFI
B1: 433H monoclonal antibody (BD Biosciences, #644092) (antibody, from another filing, mouse IgG2a, V domains shown)
VH: EVQLVETGGGLVQPKGSLRLSCAASGFPFNTFAMNWVRQAPGKGLEWLARIRSKSNNYATYYADSVKDRFTISRDDSRRMLYLLMNNVKFEDTAIYYCVRGKENNYGYAMDYWGQGTSVTVSS
VL: DIVMTQAAPSVPVTPGESVSISCRSSQSLLHSNGNTYLYWFLQRPGQSPQLLIYRMSNLASGVPDRFSGSGSGTAFTLRISRVEAEDVGVYYCMQHLEYPFTFGIGTKLELKR

EC50, ADCC reporter, F variant CD16a/NFAT-Jurkat, target CHO-K1-human CCR8 cells (human CCR8 (human) [9]): 0.00351 nM
EC50, ADCC reporter, F variant CD16a/NFAT-Jurkat, target HuT78 cells (human CCR8 (human) [9]): 0.0046 nM
EC50, ADCC reporter, V variant CD16a/NFAT-Jurkat, target CHO-K1-human CCR8 cells (human CCR8 (human) [9]): 0.00487 nM
EC50, ADCC reporter, V variant CD16a/NFAT-Jurkat, target HuT78 cells (human CCR8 (human) [9]): 0.00559 nM
EC50, ADCC with human PBMCs, target CHO-K1-human CCR8 cells (human CCR8 (human) [9]): 0.000384 nM
Max (RLU), ADCC reporter, F variant CD16a/NFAT-Jurkat, target CHO-K1-human CCR8 cells (human CCR8 (human) [9]): 8.34e+06 RLU
Max (RLU), ADCC reporter, F variant CD16a/NFAT-Jurkat, target HuT78 cells (human CCR8 (human) [9]): 1.51e+07 RLU
Max (RLU), ADCC reporter, V variant CD16a/NFAT-Jurkat, target CHO-K1-human CCR8 cells (human CCR8 (human) [9]): 4.09e+06 RLU
Max (RLU), ADCC reporter, V variant CD16a/NFAT-Jurkat, target HuT78 cells (human CCR8 (human) [9]): 9.06e+06 RLU
Max specific lysis (%), ADCC with human PBMCs, target CHO-K1-human CCR8 cells (human CCR8 (human) [9]): 44.2%
B2: Hu149-11G1x (antibody, V domains shown, not shown: a dimerising Fc or GST)
VH: EVQLVESGGGLVQPGGSLKLSCAASGFTFNTYAMNWVRQASGKGLEWVGRIRSKSNFYATAYAASVKGRFTISRDDSKNTAYLQMNSLKTEDTAVYYCTRGREYGSSYAMDYWGQGTLVTVSS
VL: DIVMTQSPLSLPVTPGEPASISCRSSKSLLHSNANTYLYWFLQKPGQSPQLLIYRMSNLASGVPDRFSGSGSGTDFTLKISRVEAEDVGVYYCMQHLEYPLTFGGGTKVELK

Max MFI (human CCR1 (human)): 226 MFI
Max MFI (human CCR4 (human)): 32.8 MFI
B3: Hu149-9 (antibody, human IgG1, V domains shown)
VH: EVQLVESGGGLVQPGGSLKLSCAASGFTFNTYAMNWVRQASGKGLEWVGRIRSKSNFYATAYAASVKGRFTISRDDSKNTAYLQMNSLKTEDTAVYYCTRGRDYGSSYAMDYWGQGTLVTVSS
VL: DIVMTQSPLSLPVTPGEPASISCRSSKSLLHSNANTYLYWFLQKPGQSPQLLIYRMSNLASGVPDRFSGSGSGTDFTLKISRVEAEDVGVYYCMQHLEYPLTFGGGTKVELK
